Biological target: RSV protein F (recombinant or purified F protein) (respiratory syncytial virus (RSV), strain not stated)
Experiment: SPR (Biacore), Fab on recombinant antigen

Substance “Fab fragments derived from commercially available Palivizumab (Synagis)” has a Kd of 3.78 nM, a koff of 0.000757 s⁻¹ and a kon of 200000 M⁻¹ s⁻¹. The t1/2 was 15 min.
